Legend:
[1] = target: D3H44 light chain Q124R_Q160K_T178R with N-terminal HA or FLAG tag; assay: LCCA (SPR tag readout), L1:L2 DNA 1:3, normalized to 1:1; competing light chain m13
[2] = target: D3H44 light chain Q124R_T178R with N-terminal HA or FLAG tag; assay: as above
[3] = target: D3H44 light chain Q124K_T178R with N-terminal HA or FLAG tag; assay: as above
[4] = target: D3H44 light chain Q124R_T178K with N-terminal HA or FLAG tag; assay: as above
[5] = target: D3H44 light chain Q124E_Q160E_T180E with N-terminal HA or FLAG tag; assay: LCCA (SPR tag readout), L1:L2 DNA 1:9, normalized to 1:1; competing light chain m15
[6] = target: D3H44 light chain Q124R_T178R with N-terminal HA or FLAG tag; assay: LCCA (SPR tag readout), L1:L2 DNA 1:3, normalized to 1:1; competing light chain m18
[7] = target: D3H44 light chain Q124R_T178K with N-terminal HA or FLAG tag; assay: as above
[8] = target: D3H44 light chain Q124E_T180E with N-terminal HA or FLAG tag; assay: LCCA (SPR tag readout), L1:L2 DNA 1:3, normalized to 1:1; competing light chain m12
[9] = target: D3H44 light chain Q124E_Q160E_T180E with N-terminal HA or FLAG tag; assay: LCCA (SPR tag readout), L1:L2 DNA 1:3, normalized to 1:1; competing light chain m9
[10] = target: D3H44 light chain Q124E_T180E with N-terminal HA or FLAG tag; assay: as above
[11] = target: D3H44 light chain Q124E_Q160E_T180E with N-terminal HA or FLAG tag; assay: LCCA (SPR tag readout), L1:L2 DNA 1:3, normalized to 1:1; competing light chain m15
[12] = target: D3H44 light chain Q124E_T180E with N-terminal HA or FLAG tag; assay: as above
[13] = target: D3H44 light chain Q124E_T180E with N-terminal HA or FLAG tag; assay: LCCA (SPR tag readout), L1:L2 DNA 1:3, normalized to 1:1; competing light chain m14
[14] = target: D3H44 light chain Q124E_Q160E_T180E with N-terminal HA or FLAG tag; assay: LCCA (SPR tag readout), L1:L2 DNA 1:9, normalized to 1:1; competing light chain m9
[15] = target: D3H44 light chain Q124E_T180E with N-terminal HA or FLAG tag; assay: LCCA (SPR tag readout), L1:L2 DNA 1:9, normalized to 1:1; competing light chain m12
[16] = target: D3H44 light chain Q124R_T178R with N-terminal HA or FLAG tag; assay: LCCA (SPR tag readout), L1:L2 DNA 1:9, normalized to 1:1; competing light chain m18
[17] = target: D3H44 light chain Q124R_T178K with N-terminal HA or FLAG tag; assay: as above
[18] = target: D3H44 light chain Q124K_T178R with N-terminal HA or FLAG tag; assay: LCCA (SPR tag readout), L1:L2 DNA 1:9, normalized to 1:1; competing light chain m13
[19] = target: D3H44 light chain T178R with N-terminal HA or FLAG tag; assay: LCCA (SPR tag readout), L1:L2 DNA 1:3, normalized to 1:1; competing light chain m13
[20] = target: D3H44 light chain F116C_Q124R_T178R with N-terminal HA or FLAG tag; assay: LCCA (SPR tag readout), L1:L2 DNA 1:3, normalized to 1:1; competing light chain m18
[21] = target: D3H44 light chain Q124K_T178R with N-terminal HA or FLAG tag; assay: as above
[22] = target: D3H44 light chain Q124E_Q160E_T180E with N-terminal HA or FLAG tag; assay: LCCA (SPR tag readout), L1:L2 DNA 1:3, normalized to 1:1; competing light chain m12
[23] = target: D3H44 light chain Q124E_T178E_T180E with N-terminal HA or FLAG tag; assay: LCCA (SPR tag readout), L1:L2 DNA 1:3, normalized to 1:1; competing light chain m9
[24] = target: D3H44 light chain Q124E_Q160E_T180E with N-terminal HA or FLAG tag; assay: LCCA (SPR tag readout), L1:L2 DNA 1:3, normalized to 1:1; competing light chain m17
[25] = target: D3H44 light chain Q124R_T178R with N-terminal HA or FLAG tag; assay: LCCA (SPR tag readout), L1:L2 DNA 1:9, normalized to 1:1; competing light chain m10
[26] = target: D3H44 light chain Q124E_T180E with N-terminal HA or FLAG tag; assay: LCCA (SPR tag readout), L1:L2 DNA 1:3, normalized to 1:1; competing light chain m19
[27] = target: D3H44 light chain Q124R_T178R with N-terminal HA or FLAG tag; assay: LCCA (SPR tag readout), L1:L2 DNA 1:3, normalized to 1:1; competing light chain m10
[28] = target: D3H44 light chain Q124E_T178E_T180E with N-terminal HA or FLAG tag; assay: LCCA (SPR tag readout), L1:L2 DNA 1:9, normalized to 1:1; competing light chain m9
[29] = target: D3H44 light chain Q124E_Q160E_T180E with N-terminal HA or FLAG tag; assay: LCCA (SPR tag readout), L1:L2 DNA 1:9, normalized to 1:1; competing light chain m12
[30] = target: D3H44 light chain Q124K_T178R with N-terminal HA or FLAG tag; assay: LCCA (SPR tag readout), L1:L2 DNA 1:9, normalized to 1:1; competing light chain m18
[31] = target: D3H44 light chain T178R with N-terminal HA or FLAG tag; assay: LCCA (SPR tag readout), L1:L2 DNA 1:3, normalized to 1:1; competing light chain m18
[32] = target: D3H44 light chain Q124R_T178R with N-terminal HA or FLAG tag; assay: LCCA (SPR tag readout), L1:L2 DNA 1:9, normalized to 1:1; competing light chain m16
[33] = target: D3H44 light chain Q124R_T178R with N-terminal HA or FLAG tag; assay: LCCA (SPR tag readout), L1:L2 DNA 1:3, normalized to 1:1; competing light chain m11
[34] = target: D3H44 light chain Q124E_T178E with N-terminal HA or FLAG tag; assay: LCCA (SPR tag readout), L1:L2 DNA 1:3, normalized to 1:1; competing light chain m9
[35] = target: D3H44 light chain Q124E_V133D with N-terminal HA or FLAG tag; assay: as above
[36] = target: D3H44 light chain Q124R_T178R with N-terminal HA or FLAG tag; assay: LCCA (SPR tag readout), L1:L2 DNA 1:3, normalized to 1:1; competing light chain m16
[37] = target: D3H44 light chain Q124R_T178R with N-terminal HA or FLAG tag; assay: LCCA (SPR tag readout), L1:L2 DNA 1:9, normalized to 1:1; competing light chain m11
[38] = target: D3H44 light chain Q124E_Q160E_T180E with N-terminal HA or FLAG tag; assay: LCCA (SPR tag readout), L1:L2 DNA 1:9, normalized to 1:1; competing light chain m19
[39] = target: D3H44 light chain Q124E_Q160E_T180E with N-terminal HA or FLAG tag; assay: LCCA (SPR tag readout), L1:L2 DNA 1:3, normalized to 1:1; competing light chain m19
[40] = target: D3H44 light chain Q124E_T178E with N-terminal HA or FLAG tag; assay: LCCA (SPR tag readout), L1:L2 DNA 1:9, normalized to 1:1; competing light chain m9
[41] = target: D3H44 light chain Q124E_V133D with N-terminal HA or FLAG tag; assay: as above
[42] = target: D3H44 light chain Q124E_T180E with N-terminal HA or FLAG tag; assay: as above
[43] = target: D3H44 light chain T178R with N-terminal HA or FLAG tag; assay: LCCA (SPR tag readout), L1:L2 DNA 1:9, normalized to 1:1; competing light chain m18
[44] = target: D3H44 light chain Q124R_T178R with N-terminal HA or FLAG tag; assay: LCCA (SPR tag readout), L1:L2 DNA 1:9, normalized to 1:1; competing light chain m13

Substance: D3H44 Fab heavy chain L143E_K145T_Q179D with C-terminal ABD2-His6 tag
- H1L1:H1L2 normalized median ratio [1]: 69%
- H1L1:H1L2 normalized median scalar value ln(r1/f1) [1]: 0.79
- H1L1:H1L2 normalized median ratio [2]: 76%
- H1L1:H1L2 normalized median scalar value ln(r1/f1) [2]: 1.14
- H1L1:H1L2 normalized median ratio [3]: 85%
- H1L1:H1L2 normalized median scalar value ln(r1/f1) [3]: 1.74
- H1L1:H1L2 normalized median ratio [4]: 84%
- H1L1:H1L2 normalized median scalar value ln(r1/f1) [4]: 1.63
- H1L1:H1L2 normalized median ratio [5]: 22%
- H1L1:H1L2 normalized median ratio [6]: 87%
- H1L1:H1L2 normalized median scalar value ln(r1/f1) [6]: 1.9
- H1L1:H1L2 normalized median ratio [7]: 89%
- H1L1:H1L2 normalized median scalar value ln(r1/f1) [7]: 2.08
- H1L1:H1L2 normalized median ratio [8]: 15%
- H1L1:H1L2 normalized median ratio [9]: 13%
- H1L1:H1L2 normalized median ratio [10]: 24%
- H1L1:H1L2 normalized median ratio [11]: 11%
- H1L1:H1L2 normalized median ratio [12]: 16%
- H1L1:H1L2 normalized median ratio [13]: 31%
- H1L1:H1L2 normalized median ratio [14]: 18%
- H1L1:H1L2 normalized median ratio [15]: 11%
- H1L1:H1L2 normalized median ratio [16]: 82%
- H1L1:H1L2 normalized median scalar value ln(r1/f1) [16]: 1.55
- H1L1:H1L2 normalized median ratio [17]: 78%
- H1L1:H1L2 normalized median scalar value ln(r1/f1) [17]: 1.28
- H1L1:H1L2 normalized median ratio [18]: 89%
- H1L1:H1L2 normalized median scalar value ln(r1/f1) [18]: 2.05

Substance: D3H44 Fab heavy chain Q179K with C-terminal ABD2-His6 tag
- H2L2:H2L1 normalized median ratio [2]: 4%
- H2L2:H2L1 normalized median ratio [19]: 4%
- H2L2:H2L1 normalized median ratio [3]: 4%
- H2L2:H2L1 normalized median ratio [4]: 4%
- H2L2:H2L1 normalized median ratio [20]: 6%
- H2L2:H2L1 normalized median ratio [21]: 8%
- H2L2:H2L1 normalized median ratio [22]: 92%
- H2L2:H2L1 normalized median ratio [8]: 96%
- H2L2:H2L1 normalized median ratio [23]: 92%
- H2L2:H2L1 normalized median ratio [10]: 96%
- H2L2:H2L1 normalized median ratio [12]: 96%
- H2L2:H2L1 normalized median ratio [24]: 94%
- H2L2:H2L1 normalized median ratio [25]: 9%
- H2L2:H2L1 normalized median ratio [26]: 96%
- H2L2:H2L1 normalized median ratio [27]: 8%
- H2L2:H2L1 normalized median ratio [28]: 91%
- H2L2:H2L1 normalized median ratio [29]: 90%
- H2L2:H2L1 normalized median ratio [15]: 87%
- H2L2:H2L1 normalized median ratio [30]: 10%
- H2L2:H2L1 normalized median ratio [18]: 13%

Substance: D3H44 Fab heavy chain L143E_K145T_Q179E with C-terminal ABD2-His6 tag
- H1L1:H1L2 normalized median ratio [1]: 73%
- H1L1:H1L2 normalized median scalar value ln(r1/f1) [1]: 1
- H1L1:H1L2 normalized median ratio [2]: 85%
- H1L1:H1L2 normalized median scalar value ln(r1/f1) [2]: 1.75
- H1L1:H1L2 normalized median ratio [3]: 70%
- H1L1:H1L2 normalized median scalar value ln(r1/f1) [3]: 0.84
- H1L1:H1L2 normalized median ratio [4]: 84%
- H1L1:H1L2 normalized median scalar value ln(r1/f1) [4]: 1.69
- H1L1:H1L2 normalized median ratio [31]: 89%
- H1L1:H1L2 normalized median scalar value ln(r1/f1) [31]: 2.14
- H1L1:H1L2 normalized median ratio [21]: 88%
- H1L1:H1L2 normalized median scalar value ln(r1/f1) [21]: 2
- H1L1:H1L2 normalized median ratio [22]: 12%
- H1L1:H1L2 normalized median ratio [8]: 30%
- H1L1:H1L2 normalized median ratio [32]: 88%
- H1L1:H1L2 normalized median scalar value ln(r1/f1) [32]: 1.96
- H1L1:H1L2 normalized median ratio [33]: 86%
- H1L1:H1L2 normalized median scalar value ln(r1/f1) [33]: 1.83
- H1L1:H1L2 normalized median ratio [34]: 14%
- H1L1:H1L2 normalized median ratio [23]: 8%
- H1L1:H1L2 normalized median ratio [35]: 8%
- H1L1:H1L2 normalized median ratio [10]: 15%
- H1L1:H1L2 normalized median ratio [12]: 16%
- H1L1:H1L2 normalized median ratio [36]: 92%
- H1L1:H1L2 normalized median scalar value ln(r1/f1) [36]: 2.41
- H1L1:H1L2 normalized median ratio [13]: 27%
- H1L1:H1L2 normalized median ratio [37]: 85%
- H1L1:H1L2 normalized median scalar value ln(r1/f1) [37]: 1.77
- H1L1:H1L2 normalized median ratio [38]: 25%
- H1L1:H1L2 normalized median ratio [25]: 92%
- H1L1:H1L2 normalized median scalar value ln(r1/f1) [25]: 2.45
- H1L1:H1L2 normalized median ratio [39]: 11%
- H1L1:H1L2 normalized median ratio [27]: 92%
- H1L1:H1L2 normalized median scalar value ln(r1/f1) [27]: 2.46
- H1L1:H1L2 normalized median ratio [40]: 15%
- H1L1:H1L2 normalized median ratio [28]: 8%
- H1L1:H1L2 normalized median ratio [41]: 12%
- H1L1:H1L2 normalized median ratio [42]: 17%
- H1L1:H1L2 normalized median ratio [29]: 12%
- H1L1:H1L2 normalized median ratio [43]: 75%
- H1L1:H1L2 normalized median scalar value ln(r1/f1) [43]: 1.1
- H1L1:H1L2 normalized median ratio [30]: 88%
- H1L1:H1L2 normalized median scalar value ln(r1/f1) [30]: 2.02
- H1L1:H1L2 normalized median ratio [44]: 83%
- H1L1:H1L2 normalized median scalar value ln(r1/f1) [44]: 1.59

Reference: patent publication US11306156
